According to PMC3937733:

Target: mTurquoise-Tub1p (S. cerevisiae) (UniProt P09733)
Assay: FRET or BRET; sensitized emission FRET in living S. cerevisiae cells by confocal microscopy; mTurquoise donor, YFP acceptor; FRET index corrected for donor and acceptor bleed through and for the level of the donor (relative FRET index)

UniProt P09733, sequence (P09733 whole entry): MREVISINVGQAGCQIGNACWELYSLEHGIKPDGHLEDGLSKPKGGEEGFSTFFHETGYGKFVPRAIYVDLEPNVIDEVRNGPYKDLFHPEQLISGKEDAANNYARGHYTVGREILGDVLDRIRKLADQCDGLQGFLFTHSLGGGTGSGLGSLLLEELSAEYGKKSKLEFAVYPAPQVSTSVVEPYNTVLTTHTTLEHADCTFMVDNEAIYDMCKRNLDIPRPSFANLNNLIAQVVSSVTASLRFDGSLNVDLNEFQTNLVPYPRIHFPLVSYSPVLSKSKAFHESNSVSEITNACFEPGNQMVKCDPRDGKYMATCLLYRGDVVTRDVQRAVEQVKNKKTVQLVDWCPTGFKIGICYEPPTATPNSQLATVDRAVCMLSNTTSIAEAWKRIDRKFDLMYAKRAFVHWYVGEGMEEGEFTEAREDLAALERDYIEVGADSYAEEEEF

Substance “YFP-VirE2 (from UniProt P0A3W8 1-533) (natural protein)” has a relative FRET index of 11.9.
